Assay results as given in patent publication US20030215838A1.
Blank lines part the entries; values can stand above or below the molecule they belong to.

Columns and labels:
[1] = molecular target: human zcytor17 and OSMRbeta co-expressed on transfected cells (human); assay: cell-based or functional assay
[2] = molecular target: human zcytor17, OSMRbeta and WSX-1 co-expressed on transfected cells (human); assay: cell-based or functional assay
[3] = molecular target: human OSMRbeta, full length, on transfected cells (human); assay: flow cytometry; no ligand (0.0 µg/mL, background) on BHK cells with OSMRbeta alone, SA-PE
[4] = molecular target: human zcytor17 receptor, full length, on transfected cells (human); assay: flow cytometry; no ligand (0.0 µg/mL, background) on BHK cells with zcytor17 alone, SA-PE
[5] = molecular target: human zcytor17 receptor, full length, on transfected cells (human); assay: flow cytometry; no ligand (0.0 ng/mL, background) on BAF3 cells with zcytor17 alone, SA-PE
[6] = molecular target: human OSMRbeta, full length, on transfected cells (human); assay: flow cytometry; biotinylated zcytor17L at 2.0 µg/mL on BHK cells with OSMRbeta alone, SA-PE
[7] = molecular target: human zcytor17 receptor, full length, on transfected cells (human); assay: flow cytometry; biotinylated zcytor17L at 2.0 µg/mL on BHK cells with zcytor17 alone, SA-PE
[8] = molecular target: human OSMRbeta, full length, on transfected cells (human); assay: flow cytometry; no ligand (0.00 µg/mL, background) on BAF3 cells with OSMRbeta alone, SA-PE
[9] = molecular target: human zcytor17 receptor, full length, on transfected cells (human); assay: flow cytometry; biotinylated zcytor17L at 1.0 ng/mL on BAF3 cells with zcytor17 alone, SA-PE
[10] = molecular target: human zcytor17 receptor, full length, on transfected cells (human); assay: flow cytometry; biotinylated zcytor17L at 0.001 µg/mL on BHK cells with zcytor17 alone, SA-PE
[11] = molecular target: human zcytor17 receptor, full length, on transfected cells (human); assay: flow cytometry; biotinylated zcytor17L at 0.010 µg/mL on BHK cells with zcytor17 alone, SA-PE
[12] = molecular target: human OSMRbeta, full length, on transfected cells (human); assay: flow cytometry; biotinylated zcytor17L at 0.04 µg/mL on BAF3 cells with OSMRbeta alone, SA-PE
[13] = molecular target: human zcytor17 receptor, full length, on transfected cells (human); assay: flow cytometry; biotinylated zcytor17L at 0.100 µg/mL on BHK cells with zcytor17 alone, SA-PE
[14] = molecular target: human OSMRbeta, full length, on transfected cells (human); assay: flow cytometry; biotinylated zcytor17L at 0.12 µg/mL on BAF3 cells with OSMRbeta alone, SA-PE
[15] = molecular target: human OSMRbeta, full length, on transfected cells (human); assay: flow cytometry; biotinylated zcytor17L at 0.37 µg/mL on BAF3 cells with OSMRbeta alone, SA-PE
[16] = molecular target: human OSMRbeta, full length, on transfected cells (human); assay: flow cytometry; biotinylated zcytor17L at 1.11 µg/mL on BAF3 cells with OSMRbeta alone, SA-PE
[17] = molecular target: human zcytor17 receptor, full length, on transfected cells (human); assay: flow cytometry; biotinylated zcytor17L at 10.0 ng/mL on BAF3 cells with zcytor17 alone, SA-PE
[18] = molecular target: human OSMRbeta, full length, on transfected cells (human); assay: flow cytometry; biotinylated zcytor17L at 10.0 µg/mL on BAF3 cells with OSMRbeta alone, SA-PE
[19] = molecular target: human OSMRbeta, full length, on transfected cells (human); assay: flow cytometry; biotinylated zcytor17L at 3.33 µg/mL on BAF3 cells with OSMRbeta alone, SA-PE
[20] = molecular target: human zcytor17 receptor, full length, on transfected cells (human); assay: flow cytometry; biotinylated zcytor17L at 0.0001 µg/mL on BHK cells with zcytor17 alone, SA-PE
[21] = molecular target: human zcytor17 receptor, full length, on transfected cells (human); assay: flow cytometry; biotinylated zcytor17L at 100.0 ng/mL on BAF3 cells with zcytor17 alone, SA-PE
[22] = molecular target: human zcytor17 and OSMRbeta co-expressed on transfected cells (human); assay: flow cytometry; no ligand (0.0 µg/mL, background) on BHK cells with zcytor17 + OSMRbeta, SA-PE
[23] = molecular target: human zcytor17 receptor, full length, on transfected cells (human); assay: flow cytometry; biotinylated zcytor17L at 0.00001 µg/mL on BHK cells with zcytor17 alone, SA-PE
[24] = molecular target: human zcytor17 receptor, full length, on transfected cells (human); assay: flow cytometry; biotinylated zcytor17L at 0.000001 µg/mL on BHK cells with zcytor17 alone, SA-PE
[25] = molecular target: human zcytor17 and OSMRbeta co-expressed on transfected cells (human); assay: flow cytometry; biotinylated zcytor17L at 2.0 µg/mL on BHK cells with zcytor17 + OSMRbeta, SA-PE
[26] = molecular target: human zcytor17 and OSMRbeta co-expressed on transfected cells (human); assay: flow cytometry; no ligand (0.00 µg/mL, background) on BAF3 cells with zcytor17 + OSMRbeta, SA-PE
[27] = molecular target: human zcytor17 and OSMRbeta co-expressed on transfected cells (human); assay: flow cytometry; biotinylated zcytor17L at 0.001 µg/mL on BHK cells with zcytor17 + OSMRbeta, SA-PE
[28] = molecular target: human zcytor17 and OSMRbeta co-expressed on transfected cells (human); assay: flow cytometry; biotinylated zcytor17L at 0.010 µg/mL on BHK cells with zcytor17 + OSMRbeta, SA-PE
[29] = molecular target: human zcytor17 and OSMRbeta co-expressed on transfected cells (human); assay: flow cytometry; biotinylated zcytor17L at 0.04 µg/mL on BAF3 cells with zcytor17 + OSMRbeta, SA-PE
[30] = molecular target: human zcytor17 and OSMRbeta co-expressed on transfected cells (human); assay: flow cytometry; biotinylated zcytor17L at 0.100 µg/mL on BHK cells with zcytor17 + OSMRbeta, SA-PE
[31] = molecular target: human zcytor17 and OSMRbeta co-expressed on transfected cells (human); assay: flow cytometry; biotinylated zcytor17L at 0.12 µg/mL on BAF3 cells with zcytor17 + OSMRbeta, SA-PE
[32] = molecular target: human zcytor17 and OSMRbeta co-expressed on transfected cells (human); assay: flow cytometry; biotinylated zcytor17L at 0.37 µg/mL on BAF3 cells with zcytor17 + OSMRbeta, SA-PE
[33] = molecular target: human zcytor17 and OSMRbeta co-expressed on transfected cells (human); assay: flow cytometry; biotinylated zcytor17L at 1.11 µg/mL on BAF3 cells with zcytor17 + OSMRbeta, SA-PE
[34] = molecular target: human zcytor17 and OSMRbeta co-expressed on transfected cells (human); assay: flow cytometry; biotinylated zcytor17L at 10.0 µg/mL on BAF3 cells with zcytor17 + OSMRbeta, SA-PE
[35] = molecular target: human zcytor17 and OSMRbeta co-expressed on transfected cells (human); assay: flow cytometry; biotinylated zcytor17L at 3.33 µg/mL on BAF3 cells with zcytor17 + OSMRbeta, SA-PE
[36] = molecular target: human zcytor17 and OSMRbeta co-expressed on transfected cells (human); assay: flow cytometry; biotinylated zcytor17L at 0.0001 µg/mL on BHK cells with zcytor17 + OSMRbeta, SA-PE
[37] = molecular target: human zcytor17 and OSMRbeta co-expressed on transfected cells (human); assay: flow cytometry; biotinylated zcytor17L at 0.00001 µg/mL on BHK cells with zcytor17 + OSMRbeta, SA-PE
[38] = molecular target: human zcytor17 and OSMRbeta co-expressed on transfected cells (human); assay: flow cytometry; biotinylated zcytor17L at 0.000001 µg/mL on BHK cells with zcytor17 + OSMRbeta, SA-PE

- proliferation of BaF3/zcytor17/OSMRbeta cells, Alamar Blue (activated CCRF-CEM and CCRF-HSB2 conditioned media) (fold over background) [1]: 10
- proliferation of BaF3/zcytor17/OSMRbeta cells, Alamar Blue (activated CD3+ selected human cell conditioned media) (fold over background) [1]: 15
- proliferation of BaF3/zcytor17/WSX-1/OSMRbeta cells, Alamar Blue (activated CCRF-CEM and CCRF-HSB2 conditioned media) (fold over background) [2]: 10
- proliferation of BaF3/zcytor17/WSX-1/OSMRbeta cells, Alamar Blue (activated CD3+ selected human cell conditioned media) (fold over background) [2]: 15
Molecule: human zcytor17lig (untagged, in conditioned media) (ligand)

- mean fluorescent intensity (MFI) [3]: 0
- mean fluorescent intensity (MFI) [4]: 15
- mean fluorescent intensity (MFI) [5]: 7
- mean fluorescent intensity (MFI) [6]: 13
- mean fluorescent intensity (MFI) [7]: 3030
- mean fluorescent intensity (MFI) [8]: 11
- mean fluorescent intensity (MFI) [9]: 17
- mean fluorescent intensity (MFI) [10]: 39
- mean fluorescent intensity (MFI) [11]: 244
- mean fluorescent intensity (MFI) [12]: 5
- mean fluorescent intensity (MFI) [13]: 1600
- mean fluorescent intensity (MFI) [14]: 5
- mean fluorescent intensity (MFI) [15]: 5
- mean fluorescent intensity (MFI) [16]: 5
- mean fluorescent intensity (MFI) [17]: 72
- mean fluorescent intensity (MFI) [18]: 6
- mean fluorescent intensity (MFI) [19]: 5
- mean fluorescent intensity (MFI) [20]: 16
- mean fluorescent intensity (MFI) [21]: 347
- mean fluorescent intensity (MFI) [22]: 13
- mean fluorescent intensity (MFI) [23]: 15
- mean fluorescent intensity (MFI) [24]: 14
- mean fluorescent intensity (MFI) [25]: 3780
- mean fluorescent intensity (MFI) [26]: 7
- mean fluorescent intensity (MFI) [27]: 53
- mean fluorescent intensity (MFI) [28]: 328
- mean fluorescent intensity (MFI) [29]: 247
- mean fluorescent intensity (MFI) [30]: 2130
- mean fluorescent intensity (MFI) [31]: 364
- mean fluorescent intensity (MFI) [32]: 441
- mean fluorescent intensity (MFI) [33]: 489
- mean fluorescent intensity (MFI) [34]: 531
- mean fluorescent intensity (MFI) [35]: 508
- mean fluorescent intensity (MFI) [36]: 17
- mean fluorescent intensity (MFI) [37]: 15
- mean fluorescent intensity (MFI) [38]: 14
B1: biotinylated human zcytor17 ligand (ligand)
chain: LPVRLLRPSDDVQKIVEELQSLSKMLLKDVEEEKGVLVSQNYTLPCLSPDAQPPNNIHSPAIRAYLKTIRQLDNKSVIDEIIEHLDKLIFQDAPETNISVPTDTHECKRFILTISQQFSECMDLALKSLTSGAQQATT
modifications: biotin
